# ± gives the uncertainty stated by the source.
# Assay: amyloid nucleation score (Sup35N fusion, yeast selection) (log enrichment); library NNK2; higher = more nucleation; inactive = no reads after selection
# Summary of the method: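 The nucleation score is the log enrichment of output over input reads, calculated with DiMSum and centred on the mode score of non-aggregating sequences. Sequences with under 100 input reads were excluded. Reads came from Illumina sequencing of plasmid inserts from psi-negative yeast expressing Sup35N fused to peptides of 20 random codons, induced 24 hours with 100 μM copper sulfate and grown 7 days at 30°C without adenine and uracil.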
row,Substance,amyloid nucleation score
1,GREVHALPHEGMVDRSGRGT,1.29 ± 0.16
2,GRIVVFV,0.538 ± 0.39
3,GRKLNFGQAFLWLYQVCWFM,inactive
4,GRMNTLDTFLTMAISDDASF,-0.147 ± 0.46
5,GRRFLYKPAKTWYVVWHRGL,0.229 ± 0.49
6,GRVFIASLIARTDPPKLVFK,1.67 ± 0.083
7,GRWSRF,0.446 ± 0.64
8,GSCSKCNWCINKTAQGFVLS,-0.062 ± 0.45
9,GSFMYSREVRLRYALARSFE,-0.545 ± 0.41
10,GSHLSSSFTKWMGIPAMVFR,-0.134 ± 0.54
11,GSKTRFF,inactive
12,GSSGFGRVLTGIYKCYTYWE,inactive
13,GSSRLCRQYAVNFFDCHMYD,4.78 ± 0.056
14,GSSTMWNVLVAWLRTIL,inactive
15,GSVFSKHQGSFVFSLQQLGL,-1.43 ± 0.34
16,GSVHANKD,-0.299 ± 0.63
17,GSVRTDVLSPRFGGTGHLVN,-0.116 ± 0.54
18,GSVTRGVRRAY,4.73 ± 0.06
19,GSVYKCLGSWVIYRFIFSWV,1.19 ± 0.66
20,GSYPGRLFTCVKMGVT,0.363 ± 0.65
21,GSYVDEVSIYPDEACSYRLA,-0.187 ± 0.76

row,Substance,amyloid nucleation score
1,GTAYAHFFEVNFTSKLLAEF,1.76 ± 0.18
2,GTHPCLQVCDDRGDWLLA,0.868 ± 0.29
3,GTIFMRALKNAVYASSRALI,-0.247 ± 0.54
4,GTLWLGDAGRAEN,0.589 ± 0.39
5,GTRDHGELGLLFTTTLLFVE,1.39 ± 0.13
6,GTTCDIEDVPCMLVVDTLLV,1.42 ± 0.16
7,GTVFCYLM,-1.05 ± 1
8,GVFLGALCVFTSCLSELWMC,-1.49 ± 0.78
9,GVHLYLNVYVTLKFTATGDS,5.79 ± 0.077
10,GVKSFGVFGSMYWILMFSKA,-0.495 ± 0.48
11,GVRAGACLGNGSVYSSGGRF,inactive
12,GVSWTFFGEYFQPCSSMKVN,-0.538 ± 0.46
13,GVTFNADASTFRDACMARLG,0.752 ± 0.48
14,GVTFSSMLRPFSAIAKRLVV,0.733 ± 0.56
15,GVTSCLRRPWFKYVILSPRP,1.44 ± 0.21
16,GVVPQGMMTI,-0.701 ± 0.55
17,GWFFDFFITCPVSHSTFSKL,2.19 ± 0.14
18,GWMHFVALKGFSNHGRAGSG,0.448 ± 0.57
19,GWQGISAVSRGTGCWLEGTG,0.649 ± 0.34
20,GWRFL,-1.17 ± 0.54
21,GWSYNLSETLKQSVESVLTS,1.42 ± 0.44

row,Substance,amyloid nucleation score
1,GWVVRRINAVVFVASGSI,5.601 ± 0.048
2,GYCKVGCFHLRYGSACCVRM,0.511 ± 0.41
3,GYGVAWLYGISDSVRLRAPY,0.335 ± 0.42
4,GYINEYCCHLRVNGLLRAPG,-0.315 ± 0.5
5,GYINWSCDRDMFSRTTDFLG,-0.592 ± 0.34
6,GYLILFTCNPLVFLVNRSGR,inactive
7,GYLSGYLRGSNILGHERYRY,-0.85 ± 0.32
8,GYRVDLIILKFDLWYEY,inactive
9,GYVGLGFNLTHAFGFGSLAG,0.656 ± 0.23
10,GYYCDYSNTSRATRNMASKR,-0.719 ± 0.32
11,HACSMSIFEFRMCKKWSLLV,-0.848 ± 0.38
12,HAFRDIMYTVTRSWAKRWFY,1.56 ± 0.11
13,HALGGDWHGLGGINS,-1.43 ± 0.55
14,HARHRGVCFWCVADSAPVYH,-0.012 ± 1.1
15,HATLNPSSLSATSSNPACRL,0.171 ± 0.31
16,HCIMYSTLRHRVWSGRLDGS,3.86 ± 0.089
17,HDIVRIALHYQQRVVCAWSC,0.713 ± 0.24
18,HDKAHLRTCVVFRLESSGG,4.29 ± 0.085
19,HFNSTNPTRLLVDEEFFYFE,-0.317 ± 0.5
20,HFSLAC,-0.91 ± 0.48
21,HGASSVAFNLLLSCVSWVGC,7.468 ± 0.04

row,Substance,amyloid nucleation score
1,HGKRFYAECLIVFPIDKRGA,0.098 ± 1
2,HGQISLRMWQVRR,5.759 ± 0.052
3,HGTATCVAILMNRL,6.35 ± 0.077
4,HGTNTRADYFCIYPHGNG,-0.281 ± 0.37
5,HIFGNRYWYSFCCFLLLPRR,7.691 ± 0.072
6,HIIIFLWYRRHFSS,1.78 ± 0.22
7,HIRFVDWNDTLIWVANGYI,0.049 ± 0.8
8,HIRFYVLSRNRSASNISIFT,3.09 ± 0.054
9,HISYVNSSRL,4.05 ± 0.078
10,HKAFVAAVERWAEYLDADVS,-0.585 ± 0.63
11,HKRFKEGLSG,0.047 ± 0.36
12,HLCKLSYI,1.2 ± 0.33
13,HLFACSTYKSSHRVQVCTVI,-0.497 ± 1
14,HLLIRGVMSTKNRCSLLVIG,-0.582 ± 0.44
15,HLLRNLLPHKVGSHVHRWLR,inactive
16,HLNVKLKQVKDGQPCLMRLA,1.67 ± 0.4
17,HLSTSGYVAFLKHLTLCKVL,-0.347 ± 1.1
18,HLTEFNNRRRLGTDLAGVGN,0.109 ± 0.33
19,HLTESHFGWFGSDVSSQTFL,3.42 ± 0.084
20,HMFPRWPFDVVKKDPTTTHL,0.31 ± 0.41
21,HMSTVLLAVAFIALNFPSVE,-0.373 ± 1

# From the supplement of paper PMC12042874
